± gives the uncertainty stated by the source.
Test: protein stability index of a GFP-peptide fusion (yeast GPS) (PSI 1-4); higher = more stable; sorted into four equal gates, so the index is relative within each strain
How it was run: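 The protein stability index of a peptide was calculated by multiplying its read frequency in each gate by that gate's number and adding the products. The peptides were tiled 17-residue stretches of yeast proteins, fused downstream of GFP on a Cherry-expressing plasmid and carried in yeast as a pooled library. Mid-log cultures in leucine-free medium were sorted into four equal gates by GFP/Cherry ratio, and each gate's plasmids were PCR-amplified and Illumina-sequenced.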

AYGNWFNGLKPLIQNSM [PRP8]
protein stability index (doa10∆): 2.94 ± 0.063 | protein stability index (pdr5∆): 3.31 ± 0.099 | protein stability index (san1∆): 2.85 ± 0.11 | protein stability index (ubr1∆): 3.13 ± 0.049

SNKILVYESEMEQCKQR [YIL149C/MLP2]
protein stability index (doa10∆): 2.72 ± 0.17 | protein stability index (pdr5∆): 2.95 ± 0.17 | protein stability index (san1∆): 2.18 ± 0.28 | protein stability index (ubr1∆): 3.16 ± 0.26

DQYDAERDFYHSLREYI [RPO31]
protein stability index (doa10∆): 3.33 ± 0.076 | protein stability index (pdr5∆): 3 ± 0.12 | protein stability index (san1∆): 3.07 ± 0.074 | protein stability index (ubr1∆): 3.3 ± 0.091

STLMPGGVDVGPSVESY [SNF5]
protein stability index (doa10∆): 1.63 ± 0.083 | protein stability index (pdr5∆): 1.87 ± 0.083 | protein stability index (san1∆): 2 ± 0.16 | protein stability index (ubr1∆): 2.68 ± 0.087

INKYESSPSHIELVVTE [RPL17A]
protein stability index (doa10∆): 2.08 ± 0.045 | protein stability index (pdr5∆): 2.56 ± 0.051 | protein stability index (san1∆): 2.05 ± 0.067 | protein stability index (ubr1∆): 2.17 ± 0.036

IMNVLSEGFEPTFSTHA [PRP8]
protein stability index (doa10∆): 2.86 ± 0.096 | protein stability index (pdr5∆): 2.94 ± 0.075 | protein stability index (san1∆): 2.57 ± 0.07 | protein stability index (ubr1∆): 2.67 ± 0.069

EVIFSFEGTPPFSLTYV [YMR129W/POM152]
protein stability index (doa10∆): 2.09 ± 0.051 | protein stability index (pdr5∆): 2.21 ± 0.063 | protein stability index (san1∆): 2.11 ± 0.083 | protein stability index (ubr1∆): 2.25 ± 0.047

ESQLQMDRTSLRKQYSA [SMC3]
protein stability index (doa10∆): 2.47 ± 0.08 | protein stability index (pdr5∆): 2.53 ± 0.096 | protein stability index (san1∆): 2.75 ± 0.067 | protein stability index (ubr1∆): 2.86 ± 0.094

KDEETTEKARLIDFEYV [RRI2]
protein stability index (doa10∆): 3.21 ± 0.098 | protein stability index (pdr5∆): 3.5 ± 0.14 | protein stability index (san1∆): 3.56 ± 0.073 | protein stability index (ubr1∆): 3.13 ± 0.11

SLIKETNQLVLLQKMLN [YML103C/NUP188]
protein stability index (pdr5∆): 1.29 ± 0.094 | protein stability index (san1∆): 1.06 ± 0.096 | protein stability index (ubr1∆): 1.02 ± 0.077

KTATVKINKKLNKAGKP [RPL38]
protein stability index (doa10∆): 2.73 ± 0.17 | protein stability index (pdr5∆): 3.21 ± 0.11 | protein stability index (san1∆): 3.22 ± 0.098 | protein stability index (ubr1∆): 3.19 ± 0.1

RRAAYGVVRYVMESGAK [RPS3]
protein stability index (doa10∆): 1.5 ± 0.1 | protein stability index (pdr5∆): 1.83 ± 0.13 | protein stability index (ubr1∆): 1.84 ± 0.094

DLVLGKPLADLRPLFTR [YLR335W/NUP2]
protein stability index (doa10∆): 2.97 ± 0.072 | protein stability index (pdr5∆): 2.76 ± 0.11 | protein stability index (san1∆): 2.84 ± 0.16 | protein stability index (ubr1∆): 2.27 ± 0.069

KYIVKASSGPRYIVGVR [RPT4]
protein stability index (doa10∆): 1.87 ± 0.096 | protein stability index (pdr5∆): 2.66 ± 0.13 | protein stability index (san1∆): 3.4 ± 0.089 | protein stability index (ubr1∆): 1.89 ± 0.075

YMEKGTQLDDLQHELMI [YML103C/NUP188]
protein stability index (doa10∆): 2.62 ± 0.058 | protein stability index (pdr5∆): 2.31 ± 0.059 | protein stability index (san1∆): 2.19 ± 0.063 | protein stability index (ubr1∆): 2.25 ± 0.035

LMYATDWQMMTSPVTGA [CSL4]
protein stability index (doa10∆): 2.85 ± 0.15 | protein stability index (pdr5∆): 3.21 ± 0.2 | protein stability index (ubr1∆): 2.79 ± 0.28

IYHGNHDVGELFWKVKE [PRE2]
protein stability index (doa10∆): 1.9 ± 0.063 | protein stability index (pdr5∆): 1.95 ± 0.066 | protein stability index (san1∆): 2.02 ± 0.084 | protein stability index (ubr1∆): 2.45 ± 0.049

YKDSLALINDLLREFKK [RPN6]
protein stability index (pdr5∆): 2.42 ± 0.22 | protein stability index (san1∆): 1.86 ± 0.22 | protein stability index (ubr1∆): 3.21 ± 0.23

KENLSKSSWRQEWLANL [SIR4]
protein stability index (doa10∆): 1.98 ± 0.048 | protein stability index (pdr5∆): 1.68 ± 0.034 | protein stability index (san1∆): 1.92 ± 0.07 | protein stability index (ubr1∆): 2.55 ± 0.026

ISEVMEDRNQRIKEMYW [FAS1]
protein stability index (doa10∆): 3.07 ± 0.16 | protein stability index (pdr5∆): 3.3 ± 0.17 | protein stability index (san1∆): 2.99 ± 0.12 | protein stability index (ubr1∆): 2.97 ± 0.12

HAPAYHRSKKDQDQYLE [IRR1]
protein stability index (pdr5∆): 3.56 ± 0.3 | protein stability index (san1∆): 2.95 ± 0.19

LKKANIIYHTTFSWLNA [YLR018C/POM34]
protein stability index (doa10∆): 2.46 ± 0.043 | protein stability index (pdr5∆): 2.45 ± 0.044 | protein stability index (san1∆): 2.41 ± 0.043 | protein stability index (ubr1∆): 2.54 ± 0.036

NEQLTLLSKKHGQLKLS [RPN5]
protein stability index (doa10∆): 1.6 ± 0.066 | protein stability index (pdr5∆): 2.34 ± 0.062 | protein stability index (san1∆): 1.83 ± 0.081 | protein stability index (ubr1∆): 2.4 ± 0.079

ISEKDLVPKRCLFESLS [RPO31]
protein stability index (doa10∆): 2.59 ± 0.12 | protein stability index (pdr5∆): 3.38 ± 0.15 | protein stability index (san1∆): 2.94 ± 0.16 | protein stability index (ubr1∆): 3.03 ± 0.095

ISIYNMLPPKSVKFTHI [SSN2]
protein stability index (doa10∆): 1.64 ± 0.069 | protein stability index (pdr5∆): 1.76 ± 0.057 | protein stability index (san1∆): 2.13 ± 0.066 | protein stability index (ubr1∆): 2.29 ± 0.034

NPNSTAITADLGSSEAE [YGL172W/NUP49]
protein stability index (doa10∆): 2.56 ± 0.24 | protein stability index (pdr5∆): 2.4 ± 0.14 | protein stability index (san1∆): 2.86 ± 0.22 | protein stability index (ubr1∆): 2.76 ± 0.12

NLQIRQLFNWCLMRSLH [DSN1]
protein stability index (doa10∆): 1.26 ± 0.092 | protein stability index (pdr5∆): 1.19 ± 0.061 | protein stability index (san1∆): 1.04 ± 0.17 | protein stability index (ubr1∆): 1.12 ± 0.13

AVSVANGFMHAGTTDNS [RPN2]
protein stability index (doa10∆): 1.25 ± 0.062 | protein stability index (pdr5∆): 1.4 ± 0.051 | protein stability index (san1∆): 1.17 ± 0.24 | protein stability index (ubr1∆): 1.28 ± 0.067

TNNEQLQQELATTQDQV [NUT2]
protein stability index (doa10∆): 3.06 ± 0.048 | protein stability index (pdr5∆): 3.25 ± 0.062 | protein stability index (san1∆): 3.11 ± 0.039 | protein stability index (ubr1∆): 3.19 ± 0.038

EFGTYGKYVIAGHVSGV [RPN14]
protein stability index (doa10∆): 1.57 ± 0.14 | protein stability index (pdr5∆): 1.57 ± 0.22 | protein stability index (san1∆): 1.25 ± 0.3

NLTYYNEKLECISLGST [ITC1]
protein stability index (doa10∆): 2.2 ± 0.061 | protein stability index (pdr5∆): 2.39 ± 0.044 | protein stability index (san1∆): 2.32 ± 0.044 | protein stability index (ubr1∆): 2.45 ± 0.04

ITHRDLHYDKDYNLRIY [SSN8]
protein stability index (doa10∆): 2.21 ± 0.051 | protein stability index (pdr5∆): 2.1 ± 0.041 | protein stability index (san1∆): 2.46 ± 0.043 | protein stability index (ubr1∆): 2.18 ± 0.04

RVKDPQWLIMLGICTHL [RIP1]
protein stability index (doa10∆): 2.62 ± 0.064 | protein stability index (pdr5∆): 2.48 ± 0.055 | protein stability index (san1∆): 2.36 ± 0.075 | protein stability index (ubr1∆): 2.91 ± 0.045

VSETPKRIKGLEFSALS [RPO31]
protein stability index (doa10∆): 3.01 ± 0.12 | protein stability index (pdr5∆): 2.94 ± 0.12 | protein stability index (san1∆): 3.01 ± 0.086 | protein stability index (ubr1∆): 2.97 ± 0.1

KQRFQGCNNLIKNISNR [ARP9]
protein stability index (doa10∆): 2.89 ± 0.07 | protein stability index (pdr5∆): 2.88 ± 0.048 | protein stability index (san1∆): 3.26 ± 0.063 | protein stability index (ubr1∆): 3.03 ± 0.048

AQYCYKNGLYQEAFKIY [SRP72]
protein stability index (doa10∆): 2.87 ± 0.075 | protein stability index (pdr5∆): 2.94 ± 0.097 | protein stability index (san1∆): 3.1 ± 0.069 | protein stability index (ubr1∆): 3.25 ± 0.059

VYTLACRSCPYEFPIEG [RPC11]
protein stability index (doa10∆): 1.22 ± 0.16 | protein stability index (pdr5∆): 1.36 ± 0.15 | protein stability index (ubr1∆): 1.54 ± 0.17

EGTPINNVYFAAGALFV [RPN14]
protein stability index (doa10∆): 2.2 ± 0.091 | protein stability index (pdr5∆): 2.63 ± 0.13 | protein stability index (san1∆): 2.72 ± 0.12 | protein stability index (ubr1∆): 2.45 ± 0.11

TGKFVLQGQMEKIMILL [CSN12]
protein stability index (doa10∆): 1.61 ± 0.1 | protein stability index (pdr5∆): 2.2 ± 0.12 | protein stability index (san1∆): 1.31 ± 0.2 | protein stability index (ubr1∆): 1.51 ± 0.12

RVIKDFKKLNSKNMSKS [YMR153W/NUP53]
protein stability index (doa10∆): 1.95 ± 0.16 | protein stability index (san1∆): 2.64 ± 0.21

CRVCSSHTGLVRKYDLN [RPS29B]
protein stability index (doa10∆): 2.56 ± 0.058 | protein stability index (pdr5∆): 2.33 ± 0.059 | protein stability index (san1∆): 2.38 ± 0.079 | protein stability index (ubr1∆): 1.94 ± 0.047

YLAKELNLTGPKVPEDI [RPN1]
protein stability index (doa10∆): 3.26 ± 0.23 | protein stability index (pdr5∆): 3.24 ± 0.27 | protein stability index (san1∆): 2.38 ± 0.24

VDRLKIGGSLARIALRH [RPS25A]
protein stability index (doa10∆): 2.66 ± 0.13 | protein stability index (pdr5∆): 2.1 ± 0.07 | protein stability index (san1∆): 2.01 ± 0.073 | protein stability index (ubr1∆): 1.8 ± 0.096

NYNHLLPTRYTLDVEAF [RPL27A]
protein stability index (doa10∆): 1.45 ± 0.045 | protein stability index (pdr5∆): 1.61 ± 0.047 | protein stability index (san1∆): 1.57 ± 0.087 | protein stability index (ubr1∆): 1.52 ± 0.032

YSALNSTYLPKLISAFD [RRP42]
protein stability index (doa10∆): 2.69 ± 0.068 | protein stability index (pdr5∆): 2.41 ± 0.06 | protein stability index (san1∆): 2.57 ± 0.06 | protein stability index (ubr1∆): 2.39 ± 0.055

TTVQVAEEAIVNAMRVL [PRE4]
protein stability index (doa10∆): 2.91 ± 0.12 | protein stability index (pdr5∆): 2.72 ± 0.091 | protein stability index (san1∆): 1.88 ± 0.27 | protein stability index (ubr1∆): 2.54 ± 0.09

TGPFKVNGVPLRRVNAR [RPL6B]
protein stability index (doa10∆): 2.26 ± 0.13 | protein stability index (pdr5∆): 2.49 ± 0.099 | protein stability index (san1∆): 2.56 ± 0.095 | protein stability index (ubr1∆): 2.72 ± 0.061

EVYTKTIEVLDEVITEG [POP7]
protein stability index (doa10∆): 2.84 ± 0.069 | protein stability index (pdr5∆): 3.12 ± 0.064 | protein stability index (san1∆): 3.15 ± 0.053 | protein stability index (ubr1∆): 3.03 ± 0.067

GENAAEKPDNSNHNNLN [SNF2]
protein stability index (doa10∆): 3.01 ± 0.068 | protein stability index (pdr5∆): 3.25 ± 0.064 | protein stability index (san1∆): 3.27 ± 0.05 | protein stability index (ubr1∆): 3.21 ± 0.035

NANQQFLPFNNSASNNG [SWI1]
protein stability index (doa10∆): 3 ± 0.052 | protein stability index (pdr5∆): 2.97 ± 0.052 | protein stability index (san1∆): 2.96 ± 0.042 | protein stability index (ubr1∆): 3.02 ± 0.06

— the supplement of paper PMC9732359
